Test results as given in patent US20220313819A1, “COMBINATION THERAPY FOR THE TREATMENT OF SOLID AND HEMATOLOGICAL CANCERS” (Arch Oncology, Inc., priority 2019, published 2022).

B1: VLX9 IgG (murine): murine VLX9 anti-CD47 antibody (antibody, V domains shown)
VH: QVQLQQFGAELAKPGASVQMSCKASGYTFTNYWIHWVKQRPGQGLEWIGYTDPRTDYTEYNQKFKDKATLAADRSSSTAYMRLSSLTSEDSAVYYCAGGGRVGLGYWGHGSSVTVSS
VL: DVFMTQTPLSLPVSLGDQASISCRSSQNIVQSNGNTYLEWYLQKPGQSPKLLIYKVFHRFSGVPDRFSGSGSGTDFTLKISRVEAEDLGVYYCFQGSHVPWTFGGGTKVEIK
B2: VLX9 IgG2 (xi): chimeric VLX9 anti-CD47 mAb, human IgG2 (antibody)
heavy: QVQLQQFGAELAKPGASVQMSCKASGYTFTNYWIHWVKQRPGQGLEWIGYTDPRTDYTEYNQKFKDKATLAADRSSSTAYMRLSSLTSEDSAVYYCAGGGRVGLGYWGHGSSVTVSSASTKGPSVFPLAPCSRSTSESTAALGCLVKDYFPEPVTVSWNSGALTSGVHTFPAVLQSSGLYSLSSVVTVPSSNFGTQTYTCNVDHKPSNTKVDKTVERKCCVECPPCPAPPVAGPSVFLFPPKPKDTLMISRTPEVTCVVVDVSHEDPEVQFNWYVDGVEVHNAKTKPREEQFNSTFRVVSVLTVVHQDWLNGKEYKCKVSNKGLPAPIEKTISKTKGQPREPQVYTLPPSREEMTKNQVSLTCLVKGFYPSDIAVEWESNGQPENNYKTTPPMLDSDGSFFLYSKLTVDKSRWQQGNVFSCSVMHEALHNHYTQKSLSLSPGK
light: DVFMTQTPLSLPVSLGDQASISCRSSQNIVQSNGNTYLEWYLQKPGQSPKLLIYKVFHRFSGVPDRFSGSGSGTDFTLKISRVEAEDLGVYYCFQGSHVPWTFGGGTKVEIKRTVAAPSVFIFPPSDEQLKSGTASVVCLLNNFYPREAKVQWKVDNALQSGNSQESVTEQDSKDSTYSLSSTLTLSKADYEKHKVYACEVTHQGLSSPVTKSFNRGEC

Tests used:
[1] = molecular target: T1, His-CD47 (recombinant human CD47) (Homo sapiens, UniProt Q08722); test: Solid-phase CD47 ELISA at pH 6 or pH 8; assay type: binding; conditions: pH 6.0 versus pH 8.0
T1 construct: His; purchased AcroBiosystems
Method: Binding by soluble anti-CD47 mAbs to immobilized recombinant human CD47 and to human CD47 expressed on cells was measured in vitro. For the in vitro binding to recombinant CD47, His-CD47 (AcroBiosystems) was adsorbed to high-binding microtiter plates overnight at 4° C. The wells were washed and varying concentrations of anti-CD47 mAbs were added to the wells in buffers with a of either pH 6 or pH 8 for 1 hour. The wells were washed and then incubated with HRP-labelled secondary antibody for 1 hour at pH 6 or pH 8 followed by addition of peroxidase substrate. The apparent affinities were calculated using non-linear fit model (Graphpad Prism).

Jurkat cells [2] = test: Phagocytosis of tumor cells by human macrophages; assay type: cell-based; conditions: 1 μg/ml mAb
Method: Human derived macrophages were derived from leukapheresis of healthy human peripheral blood and incubated in AIM-V media (Life Technologies) for 7-10 days. For the in vitro phagocytosis assay, macrophages were re-plated at a concentration of 1×10^4 cells per well in 100 ul of AIM-V media in a 96-well plate and allowed to adhere for 24 hrs. Once the effector macrophages adhered to the culture dish, the target human cancer cells (Jurkat) were labelled with 1 μM 5(6)-Carboxyfluorescein diacetate N-succinimidyl ester (CFSE; Sigma Aldrich) and added to the macrophage cultures at a concentration of 5×10^4 cells in […] of AIM-V media (5:1 target to effector ratio). VLX4, VLX8, and VLX9 CD47 mAbs (1 μg/ml) were added immediately upon mixture of target and effector cells and allowed to incubate at 37° C. for 2-3 hours. After 2-3 hrs, all non-phagocytosed cells were removed and the remaining cells washed three times with phosphate buffered saline (PBS; Sigma Aldrich). Cells were then trypsinized, collected into microcentrifuge tubes, and incubated in 100 ng of allophycocyanin (APC) labelled CD14 antibodies (BD Biosciences) for 30 minutes, washed once, and analyzed by flow cytometry (Accuri C6; BD Biosciences) for the percentage of CD14^+ cells that were also CFSE^+ indicating complete phagocytosis.

hRBCs = test: Hemagglutination of washed human red blood cells; assay type: cell-based
Method: Hemagglutination of hRBCs was assessed following incubation of hRBCs with various concentrations of chimeric and humanized VLX4, VLX8, and VLX9 mAbs in vitro essentially as described by Kikuchi et al. Biochem Biophys Res. Commun (2004) 315:912-918. Blood was obtained from healthy donors, diluted (1:50) in PBS/1 mM EDTA/BSA and washed 3 times with PBS/EDTA/BSA. hRBCs were added to U-bottomed 96 well plates with equal volumes of the antibodies (75 μl of each) and incubated for 3 hrs at 37° C. and overnight at 4° C.

Jurkat cells [3] = test: Cell death by soluble mAb, annexin V / 7-AAD; assay type: cell-based, human; conditions: 1 μg/ml, 24 hrs
Method: Induction of cell death by soluble anti-CD47 mAbs is measured in vitro (Manna et al. (2003) J. Immunol. 107 (7): 3544-53, Kikuchi et al. Biochem Biophys Res. Commun. 315: 912-8, 2004), Pettersen et al. J. Immuno. 162: 7031-7040, 1999), Manna et al. Cancer Research, 64: 1026-1036, 2004). For the in vitro cell death assay, 1×10^5 transformed human T cells (Jurkat cells) were incubated with soluble humanized VLX4, VLX8, and VLX9 CD47 mAbs (1 μg/ml) for 24 hrs at 37° C. As cell death occurs, mitochondrial membrane potential is decreased, the inner leaflet of the cell membrane is inverted, exposing phosphatidylserines (PS), and propidium iodide (PI) or 7-aminoactinomycin D (7-AAD) is able to incorporate into nuclear DNA. In order to detect these cellular changes, cells were then stained with fluorescently labelled annexin V and PI or 7-aminoactinomycin D (7-AAD) (BD Biosciences) and the signal detected using an Accuri C6 flow cytometer (BD Biosciences). The increase in PS exposure is determined by measuring the percent increase in annexin V signal and the percent of dead cells by measuring the percent increase in PI or 7-AAD signal. Annexin V positive (annexin V^+) or annexin V positive/7-AAD negative (annexin V^+/7-AAD^−) cells are observed in early stages of cell death and annexin V positive/7-AAD positive (annexin V^+/7-AAD^+) cells are dead cells. […]

| Molecule | pH dependent binding to His-CD47 [1] | phagocytosis of Jurkat cells by human macrophages (Jurkat cells [2]) | HA hRBC (hRBCs; hemagglutination, chimeric (xi) mAbs, Table 1) | visible hemagglutination of hRBCs (hRBCs; result in words, mAb concentrations from 50 μg/ml down) | PS exposure and cell death of Jurkat cells (annexin V^+, annexin V^+/7-AAD^−, annexin V^+/7-AAD^+) (Jurkat cells [3]) |
| --- | --- | --- | --- | --- | --- |
| B1 | did not display pH dependence |  |  |  |  |
| B2 |  | increased phagocytosis | Yes | caused visible hemagglutination | induced increased PS exposure and cell death |
